Results published in patent publication US20210230570.
Substitutions are numbered along the chain they refer to. In names and notes the source's numbering stands.

Columns and labels:
[1] = biological target: Factor X, P00742
[2] = biological target: Factor X (FX), P00742
Chain of Factor X (FX), P00742 (P00742 whole entry, looked up): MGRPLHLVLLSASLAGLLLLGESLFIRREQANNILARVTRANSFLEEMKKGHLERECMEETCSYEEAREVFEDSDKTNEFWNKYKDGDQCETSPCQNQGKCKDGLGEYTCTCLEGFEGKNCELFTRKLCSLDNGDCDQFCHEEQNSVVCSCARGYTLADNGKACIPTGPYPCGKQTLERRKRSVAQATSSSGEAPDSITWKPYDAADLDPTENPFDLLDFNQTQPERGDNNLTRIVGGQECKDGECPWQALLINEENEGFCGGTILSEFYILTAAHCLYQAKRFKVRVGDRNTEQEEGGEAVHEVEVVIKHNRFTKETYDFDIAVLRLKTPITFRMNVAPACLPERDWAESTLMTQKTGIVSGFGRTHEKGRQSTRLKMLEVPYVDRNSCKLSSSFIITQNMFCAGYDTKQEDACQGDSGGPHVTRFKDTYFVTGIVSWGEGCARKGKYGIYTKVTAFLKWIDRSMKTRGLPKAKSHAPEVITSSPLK

Chain of Factor X, P00742 (P00742 whole entry, looked up): as above

B1: FIXa K293E/R338E/R403E (protein)
chain 1: YNSGKLEEFVQGNLERECMEEKCSFEEAREVFENTERTTEFWKQYVDGDQCESNPCLNGGSCKDDINSYECWCPFGFEGKNCELDVTCNIKNGRCEQFCKNSADNKVVCSCTEGYRLAENQKSCEPAVPFPCGRVSVSQTSKLTR
chain 2: VVGGEDAKPGQFPWQVVLNGKVDAFCGGSIVNEKWIVTAAHCVETGVKITVVAGEHNIEETEHTEQKRNVIRIIPHHNYNAAINKYNHDIALLELDEPLVLNSYVTPICIADEEYTNIFLKFGSGYVSGWGRVFHKGRSALVLQYLRVPLVDRATCLESTKFTIYNNMFCAGFHEGGRDSCQGDSGGPHVTEVEGTSFLTGIISWGEECAMKGKYGIYTKVSEYVNWIKEKTKLT
[1]
  kcat: 0.8 s⁻¹

B2: FIXa-K247N/N249S/R338E/T343R/E410N (protein)
chain 1: B1 chain 1
chain 2: B1 chain 2 with K67N, N69S, E113K, T163R, E223R, E230N
[2]
  kcat: 7.9 s⁻¹
  kcat/KM: 3.1e+08 M⁻¹ s⁻¹

B3: FIXa variant R318Y/R338E/E410N (mature FIX numbering) (protein)
chain 1: B1 chain 1
chain 2: B1 chain 2 with E113K, R138Y, E223R, E230N
[2]
  KM of FX activation by FIXa in the Xase complex (FVIIIa, PC/PS vesicles, Ca2+): 0.0139 µM

B4: FIXa-Y155F/K247N/N249S/T343R/R403E/E410N (protein)
chain 1: B1 chain 1
chain 2: B1 chain 2 with K67N, N69S, E113K, E158R, T163R, E230N
[2]
  kcat: 15 s⁻¹
  kcat/KM: 2.9e+08 M⁻¹ s⁻¹

B5: FIXa variant R318Y/R403E/E410N (mature FIX numbering) (protein)
chain 1: B1 chain 1
chain 2: B1 chain 2 with E113K, R138Y, E158R, E230N
[2]
  KM of FX activation by FIXa in the Xase complex (FVIIIa, PC/PS vesicles, Ca2+): 0.0942 µM

B6: FIXa-Y155F/R318Y/R338E/R403E (protein)
chain 1: B1 chain 1
chain 2: B1 chain 2 with E113K, R138Y
[1]
  % of WT (kcat/KM): 189%
  kcat/KM: 8.7e+07 M⁻¹ s⁻¹

B7: FIXa variant R318Y/R338E/R403E/E410N (mature FIX numbering) (protein)
chain 1: B1 chain 1
chain 2: B1 chain 2 with E113K, R138Y, E230N
[2]
  KM of FX activation by FIXa in the Xase complex (FVIIIa, PC/PS vesicles, Ca2+): 0.0432 µM

B8: FIXa variant Y155F/R318Y/R338E/E410N (mature FIX numbering) (protein)
chain 1: B1 chain 1
chain 2: B1 chain 2 with E113K, R138Y, E223R, E230N
[2]
  KM of FX activation by FIXa in the Xase complex (FVIIIa, PC/PS vesicles, Ca2+): 0.016 µM

B9: FIXa R318Y/R338E/R403E (protein)
chain 1: B1 chain 1
chain 2: B1 chain 2 with E113K, R138Y
[1]
  kcat: 3.5 s⁻¹

B10: FIXa variant Y155F/R318Y/R338E/R403E (mature FIX numbering) (protein)
chain 1: B1 chain 1
chain 2: B1 chain 2 with E113K, R138Y
[2]
  KM of FX activation by FIXa in the Xase complex (FVIIIa, PC/PS vesicles, Ca2+): 0.0671 µM

B11: FIXa-Y155F/R318Y/R338E/T343R (protein)
chain 1: B1 chain 1
chain 2: B1 chain 2 with E113K, R138Y, T163R, E223R
[2]
  kcat: 7.9 s⁻¹
  kcat/KM: 3.6e+08 M⁻¹ s⁻¹

B12: FIXa-Y155F/R318Y/T343R/R403E (protein)
chain 1: B1 chain 1
chain 2: B1 chain 2 with E113K, R138Y, E158R, T163R
[2]
  kcat: 5 s⁻¹
  kcat/KM: 7.1e+07 M⁻¹ s⁻¹

B13: FIXa variant D203N/F205T/R338E (mature FIX numbering) (protein)
chain 1: B1 chain 1
chain 2: B1 chain 2 with D23N, F25T, E113K, E223R
[2]
  KM of FX activation by FIXa in the Xase complex (FVIIIa, PC/PS vesicles, Ca2+): 0.0241 µM

B14: FIXa variant D104N/K106S/Y155F/R318Y/R338E/R403E/E410N (mature FIX numbering) (protein)
chain 1: B1 chain 1 with D104N, K106S
chain 2: B1 chain 2 with E113K, R138Y, E230N
[2]
  KM of FX activation by FIXa in the Xase complex (FVIIIa, PC/PS vesicles, Ca2+): 0.048 µM

B15: FIXa variant D203N/F205T/R338E/R403E (mature FIX numbering) (protein)
chain 1: B1 chain 1
chain 2: B1 chain 2 with D23N, F25T, E113K
[2]
  KM of FX activation by FIXa in the Xase complex (FVIIIa, PC/PS vesicles, Ca2+): 0.0511 µM

B16: FIXa R318Y/R338E/E410N (protein)
chain 1: B1 chain 1
chain 2: B1 chain 2 with E113K, R138Y, E223R, E230N
[1]
  kcat: 4.6 s⁻¹

B17: FIXa variant D203N/F205T/E410N (mature FIX numbering) (protein)
chain 1: B1 chain 1
chain 2: B1 chain 2 with D23N, F25T, E113K, E158R, E223R, E230N
[2]
  KM of FX activation by FIXa in the Xase complex (FVIIIa, PC/PS vesicles, Ca2+): 0.0455 µM

B18: FIXa variant R338E/R403E/E410N (mature FIX numbering) (protein)
chain 1: B1 chain 1
chain 2: B1 chain 2 with E113K, E230N
[2]
  KM of FX activation by FIXa in the Xase complex (FVIIIa, PC/PS vesicles, Ca2+): 0.0367 µM

B19: FIXa variant K228N/R318Y/E410N (mature FIX numbering) (protein)
chain 1: B1 chain 1
chain 2: B1 chain 2 with K48N, E113K, R138Y, E158R, E223R, E230N
[2]
  KM of FX activation by FIXa in the Xase complex (FVIIIa, PC/PS vesicles, Ca2+): 0.042 µM

B20: FIXa-R318Y/R338E/T343R (protein)
chain 1: B1 chain 1
chain 2: B1 chain 2 with E113K, R138Y, T163R, E223R
[2]
  kcat: 4.5 s⁻¹
  kcat/KM: 1.5e+08 M⁻¹ s⁻¹

B21: FIXa-Y155F/K247N/N249S/R338E/T343R/E410N (protein)
chain 1: B1 chain 1
chain 2: B1 chain 2 with K67N, N69S, E113K, T163R, E223R, E230N
[2]
  kcat: 4.8 s⁻¹
  kcat/KM: 1.8e+08 M⁻¹ s⁻¹

B22: FIXa-Y155F/R318Y/R403E/E410N (protein)
chain 1: B1 chain 1
chain 2: B1 chain 2 with E113K, R138Y, E158R, E230N
[2]
  kcat/KM (M^-1s^-1), FX activation by FIXa in the Xase complex: 3.6e+07 M⁻¹ s⁻¹

B23: FIXa variant Y155F/R318Y/R403E/E410N (mature FIX numbering) (protein)
chain 1: B1 chain 1
chain 2: B1 chain 2 with E113K, R138Y, E158R, E230N
[2]
  KM of FX activation by FIXa in the Xase complex (FVIIIa, PC/PS vesicles, Ca2+): 0.111 µM

B24: FIXa variant K228N/R338E/R403E (mature FIX numbering) (protein)
chain 1: B1 chain 1
chain 2: B1 chain 2 with K48N, E113K
[2]
  KM of FX activation by FIXa in the Xase complex (FVIIIa, PC/PS vesicles, Ca2+): 0.0592 µM

B25: FIXa-Y155F/K247N/N249S/R338E/T343R/R403E (protein)
chain 1: B1 chain 1
chain 2: B1 chain 2 with K67N, N69S, E113K, T163R
[2]
  kcat: 14.6 s⁻¹
  kcat/KM: 5.9e+08 M⁻¹ s⁻¹

B26: FIXa-Y155F/R338E/R403E/E410N (protein)
chain 1: B1 chain 1
chain 2: B1 chain 2 with E113K, E158R, R178E, E230N
[1]
  % of WT (kcat/KM): 401%
  kcat/KM: 1.8e+08 M⁻¹ s⁻¹

B27: FIXa-D104N/K106S/Y155F/K247N/N249S/R318Y/R338E/R403E/E410N (protein)
chain 1: B1 chain 1 with D104N, K106S
chain 2: B1 chain 2 with K67N, N69S, E113K, R138Y, E230N
[2]
  kcat/KM: 1.3e+08 M⁻¹ s⁻¹

B28: FIXa variant D104N/K106S/R318Y/R338E/E410N (mature FIX numbering) (protein)
chain 1: B1 chain 1 with D104N, K106S
chain 2: B1 chain 2 with E113K, R138Y, E223R, E230N
[2]
  KM of FX activation by FIXa in the Xase complex (FVIIIa, PC/PS vesicles, Ca2+): 0.0189 µM

B29: FIXa variant D203N/F205T/R318Y (mature FIX numbering) (protein)
chain 1: B1 chain 1
chain 2: B1 chain 2 with D23N, F25T, E113K, R138Y, E158R, E223R
[2]
  KM of FX activation by FIXa in the Xase complex (FVIIIa, PC/PS vesicles, Ca2+): 0.0475 µM

B30: FIXa variant A103N/N105S/Y155F/R318Y/R338E/R403E/E410N (mature FIX numbering) (protein)
chain 1: B1 chain 1 with A103N, N105S
chain 2: B1 chain 2 with E113K, R138Y, E230N
[2]
  KM of FX activation by FIXa in the Xase complex (FVIIIa, PC/PS vesicles, Ca2+): 0.0507 µM

B31: FIXa variant A103N/N105S/R318Y/R338E/R403E/E410N (mature FIX numbering) (protein)
chain 1: B1 chain 1 with A103N, N105S
chain 2: B1 chain 2 with E113K, R138Y, E230N
[2]
  KM of FX activation by FIXa in the Xase complex (FVIIIa, PC/PS vesicles, Ca2+): 0.0447 µM

B32: FIXa variant D104N/K106S/R318Y/R338E/R403E/E410N (mature FIX numbering) (protein)
chain 1: B1 chain 1 with D104N, K106S
chain 2: B1 chain 2 with E113K, R138Y, E230N
[2]
  KM of FX activation by FIXa in the Xase complex (FVIIIa, PC/PS vesicles, Ca2+): 0.0385 µM

B33: FIXa variant Y155F/R318Y/R338E/R403E/E410N (mature FIX numbering) (protein)
chain 1: B1 chain 1
chain 2: B1 chain 2 with E113K, R138Y, E230N
[2]
  KM of FX activation by FIXa in the Xase complex (FVIIIa, PC/PS vesicles, Ca2+): 0.0304 µM

B34: FIXa-Y155F/T343R/R403E/E410N (protein)
chain 1: B1 chain 1
chain 2: B1 chain 2 with E113K, E158R, T163R, E230N
[2]
  kcat: 6.6 s⁻¹
  kcat/KM: 1.5e+08 M⁻¹ s⁻¹

B35: FIXa variant R318Y/R338E/R403E (mature FIX numbering) (protein)
chain 1: B1 chain 1
chain 2: B1 chain 2 with E113K, R138Y
[2]
  KM of FX activation by FIXa in the Xase complex (FVIIIa, PC/PS vesicles, Ca2+): 0.0597 µM

B36: FIXa variant D203N/F205T/R338A (mature FIX numbering) (protein)
chain 1: B1 chain 1
chain 2: B1 chain 2 with D23N, F25T, E113K, E158A, E223R
[2]
  KM of FX activation by FIXa in the Xase complex (FVIIIa, PC/PS vesicles, Ca2+): 0.0385 µM

B37: FIXa R318Y/R338E/R403E/E410N (protein)
chain 1: B1 chain 1
chain 2: B1 chain 2 with E113K, R138Y, E230N
[1]
  kcat: 5 s⁻¹

B38: FIXa-K247N/N249S/T343R/R403E/E410N (protein)
chain 1: B1 chain 1
chain 2: B1 chain 2 with K67N, N69S, E113K, E158R, T163R, E230N
[2]
  kcat: 8 s⁻¹
  kcat/KM: 1.3e+08 M⁻¹ s⁻¹

B39: FIXa variant D203N/F205T/R318Y/E410N (mature FIX numbering) (protein)
chain 1: B1 chain 1
chain 2: B1 chain 2 with D23N, F25T, E113K, R138Y, E158R, E223R, E230N
[2]
  KM of FX activation by FIXa in the Xase complex (FVIIIa, PC/PS vesicles, Ca2+): 0.0457 µM

B40: FIXa variant Y155F/R338E/R403E/E410N (mature FIX numbering) (protein)
chain 1: B1 chain 1
chain 2: B1 chain 2 with E113K, E230N
[2]
  KM of FX activation by FIXa in the Xase complex (FVIIIa, PC/PS vesicles, Ca2+): 0.0336 µM

B41: FIXa-K247N/N249S/R318Y/T343R/E410N (protein)
chain 1: B1 chain 1
chain 2: B1 chain 2 with K67N, N69S, E113K, R138Y, E158R, T163R, E223R, E230N
[2]
  kcat: 6.1 s⁻¹
  kcat/KM: 2e+08 M⁻¹ s⁻¹

B42: FIXa variant D203N/F205T/K228N (mature FIX numbering) (protein)
chain 1: B1 chain 1
chain 2: B1 chain 2 with D23N, F25T, K48N, E113K, E158R, E223R
[2]
  KM of FX activation by FIXa in the Xase complex (FVIIIa, PC/PS vesicles, Ca2+): 0.0399 µM
